Values joined by “and” are separate entries in the source; they are usually repeats but may differ in a detail not shown here. Equal entries are not always repeated.
Details: pH 8.4, Thermal, Capillary electrophoresis, whole UniProt chain shown; for unfolding free energy: 25 °C
[1] = Bos taurus, Tris Gly 25 mM 192 mM, NaCl 25 mM
[2] = Bos taurus, Tris Gly fructose 25 mM 192 mM 1.21 M, NaCl 25 mM
[3] = Bos taurus, Tris Gly sucrose 25 mM 192 mM 0.15 M, NaCl 25 mM
[4] = Bos taurus, Tris Gly sucrose 25 mM 192 mM 0.31 M, NaCl 25 mM
[5] = Bos taurus, Tris Gly sucrose 25 mM 192 mM 0.47 M, NaCl 25 mM
[6] = Bos taurus, Tris Gly sucrose 25 mM 192 mM 0.63 M, NaCl 25 mM
[7] = Bos taurus, Tris Gly sucrose 25 mM 192 mM 0.96 M, NaCl 25 mM
[8] = Aspergillus oryzae (strain ATCC 42149 / RIB 40), Tris Gly 25 mM 192 mM, NaCl 30 mM
[9] = Aspergillus oryzae (strain ATCC 42149 / RIB 40), Tris Gly fructose 25 mM 192 mM 0.57 M, NaCl 30 mM
[10] = Aspergillus oryzae (strain ATCC 42149 / RIB 40), Tris Gly fructose 25 mM 192 mM 1.21 M, NaCl 30 mM
[11] = Aspergillus oryzae (strain ATCC 42149 / RIB 40), Tris Gly fructose 25 mM 192 mM 1.52 M, NaCl 30 mM
[12] = Aspergillus oryzae (strain ATCC 42149 / RIB 40), Tris Gly sucrose 25 mM 192 mM 0.15 M, NaCl 30 mM
[13] = Aspergillus oryzae (strain ATCC 42149 / RIB 40), Tris Gly sucrose 25 mM 192 mM 0.31 M, NaCl 30 mM
[14] = Aspergillus oryzae (strain ATCC 42149 / RIB 40), Tris Gly sucrose 25 mM 192 mM 0.47 M, NaCl 30 mM
[15] = Aspergillus oryzae (strain ATCC 42149 / RIB 40), Tris Gly sucrose 25 mM 192 mM 0.63 M, NaCl 30 mM
[16] = Aspergillus oryzae (strain ATCC 42149 / RIB 40), Tris Gly sucrose 25 mM 192 mM 0.80 M, NaCl 30 mM

B1: Alpha-lactalbumin wild type, P00711 (protein)
chain: MMSFVSLLLVGILFHATQAEQLTKCEVFRELKDLKGYGGVSLPEWVCTTFHTSGYDTQAIVQNNDSTEYGLFQINNKIWCKDDQNPHSSNICNISCDKFLDDDLTDDIMCVKKILDKVGINYWLAHKALCSEKLDQWLCEKL
[1]
  unfolding free energy: 3.3 kcal/mol
  Tm: 56.1 °C and 56 °C
  heat capacity change of unfolding: 2.1 kcal/mol/K
  unfolding enthalpy (van 't Hoff): 69 kcal/mol
Bos taurus, Tris Gly fructose 25 mM 192 mM 0.57 M, NaCl 25 mM
  unfolding free energy: 4.5 kcal/mol
[2]
  unfolding free energy: 5.6 kcal/mol
  Tm: 61.6 °C
[3]
  unfolding free energy: 3.8 kcal/mol
  Tm: 56.3 °C
[4]
  unfolding free energy: 4.6 kcal/mol
  Tm: 57.5 °C
[5]
  unfolding free energy: 5.3 kcal/mol
  Tm: 59 °C
[6]
  unfolding free energy: 5.7 kcal/mol
  Tm: 60.5 °C
[7]
  unfolding free energy: 7 kcal/mol
  Tm: 62.4 °C
Bos taurus, Tris Gly fructose 25 mM 192 mM 1.83 M, NaCl 25 mM
  Tm: 63.2 °C

B2: Guanyl-specific ribonuclease T1 wild type, P00651 (protein)
chain: MMYSKLLTLTTLLLPTALALPSLVERACDYTCGSNCYSSSDVSTAQAAGYQLHEDGETVGSNSYPHKYNNYEGFDFSVSSPYYEWPILSSGDVYSGGSPGADRVVFNENNQLAGVITHTGASGNNFVECT
[8]
  unfolding free energy: 8.2 kcal/mol
  Tm: 62.6 °C and 62.5 °C
  heat capacity change of unfolding: 1.3 kcal/mol/K
  unfolding enthalpy (van 't Hoff): 98 kcal/mol
Aspergillus oryzae (strain ATCC 42149 / RIB 40), Tris Gly fructose 25 mM 192 mM 0.29 M, NaCl 30 mM
  unfolding free energy: 9.1 kcal/mol
[9]
  unfolding free energy: 9.5 kcal/mol
  Tm: 64.5 °C
[10]
  unfolding free energy: 10.5 kcal/mol
  Tm: 66.5 °C
[11]
  unfolding free energy: 11.2 kcal/mol
  Tm: 68 °C
[12]
  unfolding free energy: 9.1 kcal/mol
  Tm: 63.6 °C
[13]
  unfolding free energy: 9.5 kcal/mol
  Tm: 64.7 °C
[14]
  unfolding free energy: 10.2 kcal/mol
  Tm: 65.9 °C
[15]
  unfolding free energy: 10.6 kcal/mol
  Tm: 66.5 °C
[16]
  unfolding free energy: 11.1 kcal/mol
  Tm: 67.1 °C
Aspergillus oryzae (strain ATCC 42149 / RIB 40), Tris Gly fructose 25 mM 192 mM 0.89 M, NaCl 30 mM
  Tm: 66 °C

— FireProtDB (doi:10.1016/j.bpc.2006.12.004)
